Source: patent US20150030595A1
Where two headings read alike, the source gives them in different places.

T1: ACVR2B-Fc fusion protein (human) (UniProt Q13705)
T1 sequence: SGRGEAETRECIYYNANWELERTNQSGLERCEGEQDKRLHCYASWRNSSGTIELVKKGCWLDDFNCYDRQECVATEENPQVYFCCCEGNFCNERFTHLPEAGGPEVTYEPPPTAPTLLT

B1: human antibody F08 (full-length IgG) (antibody, V domains shown)
VH: VQLVESGGGLVQPGGSLRLSCAASGFTFSDHYMDWVRQAPGKGLEWVGRTRNKANSYTTEYAASVKGRFTISRDDSKNSLYLQMNSLRAEDTAVYYCTKGAWLDYWGQGTLVTVSS
VL: IQMTQSPSAMSASVGDRVTITCRASQGISNYLAWFQQKPGKVPKRLIYGASSLQGGVPSRFSGSGSGTEFTLTITSLQPEDFATYFCLQHKSYPLTFGPGTKVEIK
modifications: constant regions not given
B2: ACVR2B A07 (monoclonal scFv-phage) (scFv, V domains shown)
VH: QLVESGGGLVRPGRSLTLSCTASGFTFNDYAMHWVRQAPGKGLEWVSGISWNTNSKAYADSVKGRFIISRDNAKNSLYLEMNSLRAEDTAVYYCVRDGGRFYYGLDVWGQGTSVTVSS
VL: DIVMTQTPVSSPVTLGQPASISCRSSQSLIHSDGNTYLSWIQQRPGQPPRLLIYKISNRFSGVPDRFSGSGAGTDFTLKISRVEAEDVGVYYCAETSQVPHTFGQGTKVEIK
modifications: scFv linker not given
B3: DLK1 A05 (monoclonal scFv-phage) (scFv, V domains shown)
VH: QMQLVESGGGLVQPGRSLRLSCAASGFTFDEHAMHWVRQAPGKGLEWVSGINWNSGKTGYADSVKGRFTISRDNGKNSLYLQMNSLRAEDTAVYYCAKSGGYGGNTNWYFDLWGRGTLVTVSS
VL: QFVLTQPPSVSGAPGQNVTISCIGTSSNIGVGYDVHWYQQVPGTAPKLLVYGNNNRPSGVPDRFSGSKSGTSASLAITGLQAEDEADYYCQSYDSRLGVVFGGGTKLTVL
B4: DLK1 H06 (monoclonal scFv-phage) (scFv, V domains shown)
VH: QVQLVQSGGGLIQPGGSLRLSCAASGFTFSLYGMSWVRQAPGKGLEWVSSIPGSGTRTHYADSVKGRFTISRDNSKNTLFLQMNSLRAEDTAVYYCAKSTAYLFDYWGPGTLVTVSS
VL: DIQMTQSPATLSLSPGERATLSCRASQSIRHYLAWYQQKPGQAPRLLIHGASSRATGIPDRFSGSGSGTDFTLTISRLEPEDFAVYYCQHYGSPLHSFGPGTKVEIK
B5: DLK1 A10 (monoclonal scFv-phage) (scFv, V domains shown)
VH: QVQLVESGGGLVQPGRSLRLSCAASGFTFDDYAMHWVRQAPGKGLEWVSGISWNSGSIGYADSVKGRFTISRDNAKNSLYLQMNSLRAEDTAVYYCARGPGLATGKGYADYWGQGTLVTVSS
VL: DIQMTQSPSSVSASVGDRVTITCRASQRISSWLAWYQQKPGRAPKLLIHSASTLHNGVPSRFSGSASGTDFTLTISSLQPEDYAIYYCQQGHSFPYTFGQGTKLEIK
B6: DLK1 H12 (monoclonal scFv-phage) (scFv, V domains shown)
VH: QVQLVQSGGGLVKPGGSLRLSCAASEFTFSDYYMSWVRQAPGKGLEWLSYISGSGITTYYADSVKGRFTISRDNGKKSLYLEMNSLRAEDTAVYYCARLQGHCSGGACSNWFDAWGQGTLITVSS
VL: DIQMTQSPSSLSASVGDRLTITCRASQSILTYLNWYQQKPGKAPKLLIYAASSLQRGVPSRFSGSGSGTDFTLTISGLQPEDFATYYCQQGYGTPYTFGQGTKVDIK
B7: DLK1 A04 (monoclonal scFv-phage) (scFv, V domains shown)
VH: QVQLVESGAEVKKPGASVKVSCKASGYTFKDYAIHWVRQAPGQRLEWMGWINPGSGNTKYSHNFEGRVILTRDASANTAYLELPSLRSEDTAVYYCARSVSAYGSNYFDPWGQGTLITVSS
VL: DIQMTQSPSSLSASVGDRVTITCQASQDISNYLNWYQQKPGKAPKLLIYSTSNLQSGVPSRFSGSGSGTDFTLTISSLQPEDFATYYCQQLNSYPLTFGGGTKVDIK
B8: DLK1 B09 (monoclonal scFv-phage) (scFv, V domains shown)
VH: QMQLVESGGRLVRPGGSLRLSCAASGFPFTSYAMNWVRQTPGKGLEWVSTITATSGKTYYADSVKGRFTISRDNSRNTLFLQMNSLRAEDTAVYYCVRGESCSGGACSDFDYWGQGALVTVSS
VL: QLVLTQPASVSGSPGQSVTISCTGTSSDIGRYNRVSWYQHHPGKAPKLILNDVTTRPSGFSNRFSGSKSGNTASLTISGLQAEDEADYSCGSYAGSYTYVFGTGTKVTVL

Legend:
[1] = target: T1, ACVR2B-Fc fusion protein (human); assay: SPR (ProteOn XPR36)
Fc [2] = assay: phage ELISA, Fc coated
Fc [3] = assay: phage ELISA, Fc coated; remark: listed apart in the source
[4] = target: T1, ACVR2B-Fc fusion protein (human); assay: phage ELISA, ACVR2B coated
[5] = target: T1, ACVR2B-Fc fusion protein (human); assay: phage ELISA, ACVR2B coated; remark: listed apart in the source
[6] = target: anti-myc antibody coated on the ELISA plate; assay: phage ELISA, anti-myc coated
[7] = target: anti-myc antibody coated on the ELISA plate; assay: phage ELISA, anti-myc coated; remark: listed apart in the source
[8] = target: T1, ACVR2B-Fc fusion protein (human); assay: phage ELISA; OD on ACVR2B divided by OD on a-myc
[9] = target: DLK1-Fc fusion protein (human); assay: phage ELISA, DLK1 coated
Sequence of DLK1-Fc fusion protein (human) (chain, as listed by the source limits assumed, form in doubt): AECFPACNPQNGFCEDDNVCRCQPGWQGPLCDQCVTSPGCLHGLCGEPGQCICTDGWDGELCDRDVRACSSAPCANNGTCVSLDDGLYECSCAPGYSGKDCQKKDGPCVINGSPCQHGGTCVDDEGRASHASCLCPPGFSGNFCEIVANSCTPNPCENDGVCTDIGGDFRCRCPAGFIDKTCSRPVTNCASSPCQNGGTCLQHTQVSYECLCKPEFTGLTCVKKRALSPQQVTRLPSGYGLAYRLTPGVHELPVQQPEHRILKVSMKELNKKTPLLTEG

[10] = target: DLK1-Fc fusion protein (human); assay: phage ELISA; OD on DLK1 divided by OD on a-myc

| Binder | Kd [1] | koff [1] | kon [1] | OD490 (Fc [2]) | OD490 (Fc [3]) | OD490 [4] | OD490 [5] | OD490 [6] | OD490 [7] | Ratio [8] | OD490 [9] | Ratio [10] |
| --- | --- | --- | --- | --- | --- | --- | --- | --- | --- | --- | --- | --- |
| B1 | 4.05 pM | 1.32e-05 s⁻¹ | 3.25e+06 M⁻¹ s⁻¹ | – | – | – | – | – | – | – | – | – |
| B2 | – | – | – | 0.0443 OD | 0.044 OD | 2.65 OD | 2.66 OD | 0.213 OD | 0.213 OD | 12.5 | – | – |
| B3 | – | – | – | 0.0704 OD | – | – | – | 0.784 OD | – | – | 2.99 OD | 3.81 |
| B4 | – | – | – | 0.0766 OD | – | – | – | 0.863 OD | – | – | 2.13 OD | 2.47 |
| B5 | – | – | – | 0.0828 OD | – | – | – | 1.28 OD | – | – | 2.83 OD | 2.21 |
| B6 | – | – | – | 0.0539 OD | – | – | – | 0.674 OD | – | – | 3.2 OD | 4.75 |
| B7 | – | – | – | 0.0791 OD | – | – | – | 0.507 OD | – | – | 3.12 OD | 6.15 |
| B8 | – | – | – | 0.0786 OD | – | – | – | 0.0918 OD | – | – | 2.33 OD | 25.3 |
